In patent publication US6897296:

B1: TX (protein)
chain: QISPNKKAHPNMEAGPPESGESTDALKLCPHEEFLRLCKERAEEIYPIKERNNRTRLALIICNTEFDHLPPRNGADFDITGMKELLEGLDYSVDVEENLTARDMESALRAFATRPEHKSSDSTFLVLMSHGILEGICGTVHDEKKPDVLLYDTIFQIFNNRNCLSLKDKPKVIIVQACRGANRGELWVRDSPASLEVASSQSSENLEEDAVYKTHVEKDFIAFCSSTPHNVSWRDSTMGSIFITQLITCFQKYSWCCHLEEVFRKVQQSFETPRAKAQMPTIERLSMTRYFYLFPGN
B2: ICE (protein)
chain: NPAMPTSSGSEGNVKLCSLEEAQRIWKQKSAEIYPIMDKSSRTRLALIICNEEFDSIPRRTGAEVDITGMTMLLQNLGYSVDVKKNLTASDMTTELEAFAHRPEHKTSDSTFLVFMSHGIREGICGKKHSEQVPDILQLNAIFNMLNTKNCPSLKDKPKVIIIQACRGDSPGVVWFKDSVGVSGNLSLPTTEEFEDDAIKKAHIEKDFIAFCSSTPDNVSWRHPTMGSVFIGRLIEHMQEYACSCDVEEIFRKVRFSFEQPDGRAQMPTTERVTLTRCFYLFPGH
B3: recombinant CPP32 (protein)
chain: SGISLDNSYKMDYPEMGLCIIINNKNFHKSTGMTSRSGTDVDAANLRETFRNLKYEVRNKNDLTREEIVELMRDVSKEDHSKRSSFVCVLLSHGEEGIIFGTNGPVDLKKITNFFRGDRCRSLTGKPKLFIIQACRGTELDCGIETDSGVDDDMACHKIPVEADFLYAYSTAPGYYSWRNSKDGSWFIQSLCAMLKQYADKLEFMHILTRVNRKVATEFESFSFDATFHAKKQIPCIVSMLTKELYFYH
B4: bacterially expressed recombinant Mch4 (GST-Mch4 fusion protein) (protein)
chain: IQIVTPPVDKEAESYQGEEELVSQTDVKTFLEALPRAAVYRMNRNHRGLCVIVNNHSFTSLKDRQGTHKDAEILSHVFQWLGFTVHIHNNVTKVEMEMVLQKQKCNPAHADGDCFVFCILTHGRFGAVYSSDEALIPIREIMSHFTALQCPRLAEKPKLFFIQACQGEEIQPSVSIEADALNPEQAPTSLQDSIPAEADFLLGLATVPGYVSFRHVEEGSWYIQSLCNHLKKLVPRHEDILSILTAVNDDVSRRVDKQGTKKQMPQPAFTLRKKLVFPVPLDALSI
B5: Mch2 (protein)
chain: AFYKREMFDPAEKYKMDHRRRGIALIFNHERFFWHLTLPERRGTCADRDNLTRRFSDLGFEVKCFNDLKAEELLLKIHEVSTVSHADADCFVCVFLSHGEGNHIYAYDAKIEIQTLTGLFKGDKCHSLVGKPKIFIIQACRGNQHDVPVIPLDVVDNQTEKLDTNITEVDAASVYTLPAGADFLMCYSVAEGYYSHRETVNGSWYIQDLCEMLGKYGSSLEFTELLTLVNRKVSQRRVDFCKDPSAIGKKQVPCFASMLTKKLHFFPKSN
B6: recombinant Mch3 (protein)
chain: AKPDRSSFVPSLFSKKKKNVTMRSIKTTRDRVPTYQYNMNFEKLGKCIIINNKNFDKVTGMGVRNGTDKDAEALFKCFRSLGFDVIVYNDCSCAKMQDLLKKASEEDHTNAACFACILLSHGEENVIYGKDGVTPIKDLTAHFRGDRCKTLLEKPKLFFIQACRGTELDDGIQADSGPINDTDANPRYKIPVEADFLFAYSTVPGYYSWRSPGRGSWFVQALCSILEEHGKDLEIMQILTRVNDRVARHFESQSDDPHFHEKKQIPCVVSMLTKELYFSQ

Experiments:
[1] = molecular target: T1, proMch4 (35S-labeled wild type Mch4)
T1 chain: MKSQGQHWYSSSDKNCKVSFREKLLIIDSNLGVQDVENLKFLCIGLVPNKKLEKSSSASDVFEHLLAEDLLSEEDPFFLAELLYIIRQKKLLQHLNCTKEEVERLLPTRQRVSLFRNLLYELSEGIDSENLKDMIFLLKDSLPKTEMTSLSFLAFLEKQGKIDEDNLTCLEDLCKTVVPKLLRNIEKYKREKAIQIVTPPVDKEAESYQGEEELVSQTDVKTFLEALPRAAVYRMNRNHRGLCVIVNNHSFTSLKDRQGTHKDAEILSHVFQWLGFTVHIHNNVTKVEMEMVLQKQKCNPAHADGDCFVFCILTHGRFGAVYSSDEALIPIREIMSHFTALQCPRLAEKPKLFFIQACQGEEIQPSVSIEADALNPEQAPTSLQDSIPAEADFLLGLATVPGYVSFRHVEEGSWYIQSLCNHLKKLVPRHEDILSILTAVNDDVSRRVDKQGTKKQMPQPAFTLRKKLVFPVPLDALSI

DEVD-AMC = molecular target: T2, DEVD-AMC (not fully specified)
T2 chain: DEVD

YVAD-AMC = molecular target: T3, YVAD-AMC (not fully specified)
T3 chain: YVAD

truncated Mch4-M134 = molecular target: T4, truncated Mch4-M134
T4 chain: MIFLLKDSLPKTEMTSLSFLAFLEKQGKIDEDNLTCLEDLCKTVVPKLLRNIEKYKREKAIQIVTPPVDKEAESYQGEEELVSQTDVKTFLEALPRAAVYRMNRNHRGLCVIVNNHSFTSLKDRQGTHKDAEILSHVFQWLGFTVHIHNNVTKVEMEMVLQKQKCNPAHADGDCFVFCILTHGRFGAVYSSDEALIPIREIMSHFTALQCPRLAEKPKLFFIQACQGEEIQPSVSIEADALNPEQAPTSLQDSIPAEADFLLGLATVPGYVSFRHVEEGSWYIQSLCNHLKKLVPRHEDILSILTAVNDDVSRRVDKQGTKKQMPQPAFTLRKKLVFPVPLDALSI

| Protein | cleavage of proenzyme [1] | cleavage of 35S-labeled proenzyme, SDS-PAGE and autoradiography [1] | further results |
| --- | --- | --- | --- |
| B1 | none of these enzymes were able to efficiently process proMch4 | – | – |
| B2 | none of these enzymes were able to efficiently process proMch4 | – | – |
| B3 | – | there was no significant cleavage of proMch4 when incubated with recombinant CPP32 or Mch3 enzymes | – |
| B4 | – | – | Km (DEVD-AMC) (DEVD-AMC): 130 µM; Vmax/Km (DEVD-AMC): Vmax/KmMch4=18; Km (YVAD-AMC) (YVAD-AMC): 150 µM; cleavage of 35S-labeled proenzyme, SDS-PAGE and autoradiography (truncated Mch4-M134): Although Mch4 was able to cleave proMch4, its activity towards its proenzyme was significantly lower than that towards proCPP32 and proMch3 (FIG. 5B, lane 7) |
| B5 | none of these enzymes were able to efficiently process proMch4 | – | – |
| B6 | – | there was no significant cleavage of proMch4 when incubated with recombinant CPP32 or Mch3 enzymes | – |
